These results are taken from publication PMC11828469 (2025).

The chains are these.
B1: GST–Rabin8-WT [human] / 6His–Rab8a [not stated] (parent complex)
chain 1: MANDPLEGFHEVNLASPTSPDLLGVYESGTQEQTTSPSVIYRPHPSALSSVPIQANALDVSELPTQPVYSSPRRLNCAEISSISFHVTDPAPCSTSGVTAGLTKLTTRKDNYNAEREFLQGATITEACDGSDDIFGLSTDSLSRLRSPSVLEVREKGYERLKEELAKAQRELKLKDEECERLSKVRDQLGQELEELTASLFEEAHKMVREANIKQATAEKQLKEAQGKIDVLQAEVAALKTLVLSSSPTSPTQEPLPGGKTPFKKGHTRNKSTSSAMSGSHQDLSVIQPIVKDCKEADLSLYNEFRLWKDEPTMDRTCPFLDKIYQEDIFPCLTFSKSELASAVLEAVENNTLSIEPVGLQPIRFVKASAVECGGPKKCALTGQSKSCKHRIKLGDSSNYYYISPFCRYRITSVCNFFTYIRYIQQGLVKQQDVDQMFWEVMQLRKEMSLAKLGYFKEEL
chain 2: MAKTYDYLFKLLLIGDSGVGKTCVLFRFSEDAFNSTFISTIGIDFKIRTIELDGKRIKLQIWDTAGQERFRTITTAYYRGAMGIMLVYDITNEKSFDNIRNWIRNIEEHASADVEKMILGNKCDVNDKRQVSKERGEKLALDYGIKFMETSAKANINVENAFFTLARDIKAKMDKKLEGNSPQGSNQGVKITPDQQKRSSFFRCVLL
B2: GST–Rabin8-WT [human] / 6His–Rab11a [not stated] (parent complex)
chain 1: B1 chain 1
chain 2: MGTRDDEYDYLFKVVLIGDSGVGKSNLLSRFTRNEFNLESKSTIGVEFATRSIQVDGKTIKAQIWDTAGQERYRAITSAYYRGAVGALLVYDIAKHLTYENVERWLKELRDHADSNIVIMLVGNKSDLRHLRAVPTDEARAFAEKNGLSFIETSALDSTNVEAAFQTILTEIYRIVSQKQMSDRRENDMSPSNNVVPIHVPPTTENKPKVQCCQNI

One assay covers variants of B1. Briefly: GST pull-down, immunoblot quantified with Image Lab 6.1; purified Rab8 in the presence of GDPβS; n=3; parent: 4.5; read off a plot. (In western blotting, separated proteins are transferred to a membrane and probed.)
On to chain 1 MANDPLEGFHEVNLASPTSPDLLGVYESGTQEQTTSPSVIYRPHPSALSSVPIQANALDVSELPTQPVYSSPRRLNCAEISSISFHVTDPAPCSTSGVTAGLTKLTTRKDNYNAEREFLQGATITEACDGSDDIFGLSTDSLSRLRSPSVLEVREKGYERLKEELAKAQRELKLKDEECERLSKVRDQLGQALEELTASLFEEAHKMVREANIKQATAEKQLKEAQGKIDVLQAEVAALKTLVLSSSPTSPTQEPLPGGKTPFKKGHTRNKSTSSAMSGSHQDLSVIQPIVKDCKEADLSLYNEFRLWKDEPTMDRTCPFLDKIYQEDIFPCLTFSKSELASAVLEAVENNTLSIEPVGLQPIRFVKASAVECGGPKKCALTGQSKSCKHRIKLGDSSNYYYISPFCRYRITSVCNFFTYIRYIQQGLVKQQDVDQMFWEVMQLRKEMSLAKLGYFKEEL [chain 1 E192A], for which the response is approximately 4.5.
Same read-out and setting: the same measure for chain 1 MANDPLEGFHEVNLASPTSPDLLGVYESGTQEQTTSPSVIYRPHPSALSSVPIQANALDVSELPTQPVYSSPRRLNCAEISSISFHVTDPAPCSTSGVTAGLTKLTTRKDNYNAEREFLQGATITEACDGSDDIFGLSTDSLSRLRSPSVLEVREKGYERLKEELAKAQRELKLKDEECERLSKVRDQLGQELEELTASLFEEAHKMVREANIKQATAEKQLKEAQGKIDVLQAEVAALKTLVLSSSPTSPTQEPLPGGKTPFKKGHTRNKSTSSAMSGSHQDLSVIQPIVKDCKEADLSLYNEFRLWKDEPTMDRTCPFLDKIYQEDIFPCLTFSKSELASAVLEAVENNTLSIEPVGLQPIRFVKASAVECGGPKKCALTGQSKSCKHRIKLGDSSNYYYISPFCRYRITSVCNFFAYIRAIQQGAVKQQDVDQMFWEVMQLRKEMSLAKLGYFKEEL [chain 1 T419A, chain 1 Y423A, chain 1 L428A]: approximately 4.5; for chain 1 MANDPLEGFHEVNLASPTSPDLLGVYESGTQEQTTSPSVIYRPHPSALSSVPIQANALDVSELPTQPVYSSPRRLNCAEISSISFHVTDPAPCSTSGVTAGLTKLTTRKDNYNAEREFLQGATITEACDGSDDIFGLSTDSLSRLRSPSVLEVREKGYERLKEELAKAQRELKLKDEECERLSKVRDQLGQELEELTASLAEEAHKMVREANIKQATAEKQLKEAQGKIDVLQAEVAALKTLVLSSSPTSPTQEPLPGGKTPFKKGHTRNKSTSSAMSGSHQDLSVIQPIVKDCKEADLSLYNEFRLWKDEPTMDRTCPFLDKIYQEDIFPCLTFSKSELASAVLEAVENNTLSIEPVGLQPIRFVKASAVECGGPKKCALTGQSKSCKHRIKLGDSSNYYYISPFCRYRITSVCNFFTYIRYIQQGLVKQQDVDQMFWEVMQLRKEMSLAKLGYFKEEL [chain 1 F201A]: approximately 4.5.

Variants of B2 are the subject of a further assay. Briefly: GST pull-down, immunoblot quantified with Image Lab 6.1; purified Rab11 in the presence of GTPγS; n=3; parent: 8.5; read off a plot.
For chain 1 MANDPLEGFHEVNLASPTSPDLLGVYESGTQEQTTSPSVIYRPHPSALSSVPIQANALDVSELPTQPVYSSPRRLNCAEISSISFHVTDPAPCSTSGVTAGLTKLTTRKDNYNAEREFLQGATITEACDGSDDIFGLSTDSLSRLRSPSVLEVREKGYERLKEELAKAQRELKLKDEECERLSKVRDQLGQELEELTASLAEEAHKMVREANIKQATAEKQLKEAQGKIDVLQAEVAALKTLVLSSSPTSPTQEPLPGGKTPFKKGHTRNKSTSSAMSGSHQDLSVIQPIVKDCKEADLSLYNEFRLWKDEPTMDRTCPFLDKIYQEDIFPCLTFSKSELASAVLEAVENNTLSIEPVGLQPIRFVKASAVECGGPKKCALTGQSKSCKHRIKLGDSSNYYYISPFCRYRITSVCNFFTYIRYIQQGLVKQQDVDQMFWEVMQLRKEMSLAKLGYFKEEL [chain 1 F201A], the response was approximately 9.
The same measure, in the same setting: the same measure for chain 1 MANDPLEGFHEVNLASPTSPDLLGVYESGTQEQTTSPSVIYRPHPSALSSVPIQANALDVSELPTQPVYSSPRRLNCAEISSISFHVTDPAPCSTSGVTAGLTKLTTRKDNYNAEREFLQGATITEACDGSDDIFGLSTDSLSRLRSPSVLEVREKGYERLKEELAKAQRELKLKDEECERLSKVRDQLGQALEELTASLFEEAHKMVREANIKQATAEKQLKEAQGKIDVLQAEVAALKTLVLSSSPTSPTQEPLPGGKTPFKKGHTRNKSTSSAMSGSHQDLSVIQPIVKDCKEADLSLYNEFRLWKDEPTMDRTCPFLDKIYQEDIFPCLTFSKSELASAVLEAVENNTLSIEPVGLQPIRFVKASAVECGGPKKCALTGQSKSCKHRIKLGDSSNYYYISPFCRYRITSVCNFFTYIRYIQQGLVKQQDVDQMFWEVMQLRKEMSLAKLGYFKEEL [chain 1 E192A]: approximately 9.5.

Variants of B2 are the subject of a further assay. Briefly: GST pull-down, immunoblot quantified with Image Lab 6.1; purified Rab11 in the presence of GTPγS; n=3; P=0.0012 vs WT; parent: 8.5; read off a plot.
As for chain 1 MANDPLEGFHEVNLASPTSPDLLGVYESGTQEQTTSPSVIYRPHPSALSSVPIQANALDVSELPTQPVYSSPRRLNCAEISSISFHVTDPAPCSTSGVTAGLTKLTTRKDNYNAEREFLQGATITEACDGSDDIFGLSTDSLSRLRSPSVLEVREKGYERLKEELAKAQRELKLKDEECERLSKVRDQLGQELEELTASLFEEAHKMVREANIKQATAEKQLKEAQGKIDVLQAEVAALKTLVLSSSPTSPTQEPLPGGKTPFKKGHTRNKSTSSAMSGSHQDLSVIQPIVKDCKEADLSLYNEFRLWKDEPTMDRTCPFLDKIYQEDIFPCLTFSKSELASAVLEAVENNTLSIEPVGLQPIRFVKASAVECGGPKKCALTGQSKSCKHRIKLGDSSNYYYISPFCRYRITSVCNFFAYIRAIQQGAVKQQDVDQMFWEVMQLRKEMSLAKLGYFKEEL [chain 1 T419A, chain 1 Y423A, chain 1 L428A], the response was approximately 2.5.
